B1: ETS2 (parent)
chain: TSGKRYVYRFVCDLQNLLGFTPEE
B2: TRIM14 (parent)
chain: YARTPTLDPDTMHARLRLSADRLT

Variants of: B1
Experiment: protein stability index of a GFP-peptide fusion (GPS, HEK-293T) (PSI 1-6); higher = more stable
Conditions: c terminus: a fixed tail appended
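Also: lentivirally expressed fusions sorted by FACS into six bins by GFP to DsRed ratio, PSI derived from sequencing read proportions per bin multiplied by bin number.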

Protein stability index: each site, then its substitutions
V7: L 2.22, W 2.61, K 2.3, P 1.84, R 1.03, N 1.25, A 1.29, E 1.3, D 1.46, Q 1.98
R5: G 3.53, N 3.24, A 2.44, D 2.05, Y 2.88, V 1.72, I 3.19, E 1.69
K4: N 2.34, C 2.58, M 1.74, D 2.24, F 2.34, E 1.72, I 1.36, H 2.06, R 3.33, A 2.29, G 2.54, Y 3.33, L 2.8, Q 1.7
F10: W 2.42, M 2.06, N 3.32, L 1.8, A 2.02, E 2.75, Y 3.17, P 2.59, R 3.5, K 3.16, C 2.06, I 2.02, G 2.57
P22: N 1.39, H 2.07, S 1.8, E 1.46, A 1.65, C 1.4, Q 2.16, T 2.16, K 1.83, W 1.89, V 1.05, Y 3.16, I 2.24, M 2.35
L17: N 2.27, S 2.12, G 2.31, M 1.47, Q 1.71, C 2.57, K 2.43, D 1.92, F 2.73, V 1.91, W 2.21, E 3.13
R9: P 2.48, Q 1.72, W 1.96, K 1.85, G 1.58, H 1.65, L 1.48, V 2.4, T 2.15, E 1.78, A 1.45, I 1.68, C 1.53
E23: P 3.46, C 2.97, F 2.66, G 2.15, V 2.1, M 2.35, L 2.42, H 3.12, W 2.88, A 2.68, N 2.43, S 2.38, Q 2.63, I 2.43, D 2.04
G19: Y 2.52, E 1.31, M 1.82, W 2.65, I 2.39, T 1.79, Q 2.65, A 3.01, L 1.96, H 1.34, C 1.32
Y6: T 2.3, R 2.31, E 1.4, L 3.25, H 2.41, I 4.21, F 2.91, D 1.52, A 1.43, G 1.35, N 1.52, C 2.26
C12: P 2.05, I 1.96, Q 2.57, Y 1.77, R 2.58, L 2.03, M 1.25, K 2.98, D 1.72, V 2.39, W 2.21, A 1.92, S 2.9, G 2.04, F 1.68, N 3.4, T 2.17, H 2.31, E 1.76
V11: A 3.07, R 1.57, N 2.67, L 2.82, Q 1.94, F 2.56, P 2.85, K 2.15, D 2.59, W 2.14, Y 2.14, S 2.02, H 2.07
L14: N 2.23, C 2.07, V 2.39, H 2.34, K 3.2, Q 2.81, Y 2.56, G 2.34, A 3.91, D 3.01, T 2.69, M 2.14, F 2.08, S 2.77, P 3.53
D13: F 2.96, G 2.41, W 2.98, Y 2.37, T 2.99, P 3.25, A 2.67, Q 2.46, V 2.33, C 2.22
N16: D 2.17, T 1.97, W 2.05, A 2.13, K 2.02, Y 1.75, H 2.49, C 1.7, E 1.74, L 1.52, Q 2.04, M 1.53
Y8: Q 2.02, H 2.15, I 2.56, M 2.93, V 2.5, S 2.23, W 2.01, R 2.23, G 2.15, E 2.67
L18: I 1.2, V 2.91, T 1.91, E 2.04, A 1.99, M 2.07, K 1.95, G 1.92, Y 1.74, H 1.32, W 2.1, F 1.84, S 1.87
T1: S 2.4, G 2.08, E 2.38, W 2.1, Q 1.94, R 2.29, Y 1.71, M 1.86, N 1.82, H 2.12, C 1.7, I 2.6
G3: H 2.83, W 1.65, D 3.19, R 2, C 1.81, L 1.65, E 1.78, S 2.36, Y 2.09, F 2.33, M 2.08, A 2.96, T 1.86, Q 2.31
S2: G 2.02, L 3, M 2.6, I 3.22, E 2.33, D 2.89, P 2.25, F 2.74, W 4.44, H 2.62, C 1.64, A 1.74, V 1.83, N 3.49, K 2.29
F20: P 3.26, M 1.62, Q 2.35, T 1.88, C 1.93, W 3.05, D 1.48, Y 2.77, A 2.59, H 1.97, K 1.77, V 1.93, L 2.17
T21: V 1.62, S 2.13, N 2.38, P 2.44, Q 1.7, A 2.11, W 2.15, K 2.25, D 1.6, E 2.32, Y 1.77, M 2.05
Q15: G 3.45, Y 2.23, D 1.61, W 1.88, K 2.03, A 2.23, C 2.23, S 2.07, T 1.91, P 2.7, E 1.85, R 3, N 2.13, H 1.96, I 2.43
E24: G 2.14, N 2.33, P 2.52, Q 1.89, T 2.71, M 1.6, F 2.96, Y 2.38, K 1.81, V 2.51, C 2.32, A 2.69, H 2.03, S 2.21

Variants of: B2
Experiment: as above
Conditions: c terminus: a fixed tail appended

Protein stability index of substitutions, site by site:
Y1: A 3.59, C 3.2, D 3.61, E 4.17, F 2.21, G 4, H 4.06, I 2.71, K 3.71, L 3.62, M 3.71, N 3.52, P 3.77, Q 4.33, R 3.64, T 3.69, V 3.68, W 2.91
A2: C 2.53, D 3.32, E 3.71, F 2.74, G 3.06, H 2.46, I 1.73

— the supplement of paper PMC10567573
